Data from the supplement of paper PMC7877785.
± gives the uncertainty stated by the source.

Assay: self-splicing fitness, log relative to wild type (ln ratio); higher = more splicing; Tetrahymena group I intron in knt gene, E. coli kanamycin selection, DiMSum; sequences stand for … in CUCUCU…GGAGGGAAAAGUUAUCAGGCAUGCACCUGGUAGCUAGUCUUUAAACCAAUAGAUUGCAUCGGUUUAAAAGGCAAGACCGUCAAAUUGCGGGAAAGGGGUCAACAGCCGUUCAGUACCAAGUCUCAGGGGAAACUUUGAGAUGGCCUUGCAAAGGGUAUGGUAAUAAGCUGACGGACAUGGUCCUAACCACGCAGCCAAGUCCUAAGUCAACAGAUCUUCUGUUGAUAUGGAUGCAGUUCACAGACUAAAUGUCGGUCGGGGAAGAUGUAUUCUUCUCAUAAGAUAUAGUCGGACCUCUCCUUAAUGGGAGCUAGCGGAUGAAGUGAUGCAACACUGGAGCCGCUGGGAACUAAUUUGUAUGCGAAAGUAUAUUGAUUAGUUUUGGAGUACUCGUGGUCG
Summary of the method: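 A randomised library covering all eight P1ex-region intron nucleotides was built with the intron in the knt kanamycin-resistance gene on pET-22b(+) and held in E. coli BL21(DE3). Cells were grown overnight at 37°C or 30°C on LB agar, with or without 25 μg/mL kanamycin, plus 100 μg/mL carbenicillin, 50 μM IPTG and 0.2% rhamnose, and pooled colonies were amplicon-sequenced on an Illumina HiSeq 2500. DiMSum fitness is the error-weighted combination of wild-type-normalised replicate fold changes, kanamycin versus none.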

Row | Sequence | self-splicing fitness (ln) (30 °C) | self-splicing fitness (ln) (37 °C)
1 | UAGGAGCAAUAUUACGGGGU | -3.84 ± 0.4 | -2.12 ± 0.35
2 | CGCGAGCAAUAUUACGCAGG | -2.68 ± 0.13 | -1.88 ± 0.15
3 | CAAGAGCAAUAUUACGUGCU | -4.39 ± 0.31 | -2.36 ± 0.17
4 | AAAGAGCAAUAUUACGCGCU | -2.96 ± 0.4 | –
5 | GAAGAGCAAUAUUACGCGAG | -2.82 ± 0.17 | -2.16 ± 0.23
6 | CGGCAGCAAUAUUACGAGUC | -1.86 ± 0.34 | -1.76 ± 0.25
7 | CGCAAGCAAUAUUACGGAGG | -1.02 ± 0.057 | -0.818 ± 0.072
8 | UACUAGCAAUAUUACGCGUG | -1.21 ± 0.079 | -0.559 ± 0.089
9 | ACGCAGCAAUAUUACGCGCG | -2.59 ± 0.18 | -2.07 ± 0.2
10 | GGGGAGCAAUAUUACGACGG | -3.76 ± 0.46 | –
11 | ACUAAGCAAUAUUACGUGUU | -3.63 ± 0.1 | -2.2 ± 0.098
12 | GACAAGCAAUAUUACGACCG | -0.672 ± 0.21 | -0.326 ± 0.34
13 | CAACAGCAAUAUUACGGGAG | -1.23 ± 0.051 | -1.03 ± 0.063
14 | UAAUAGCAAUAUUACGCUGG | -1.95 ± 0.14 | -1.85 ± 0.16
15 | UCAAAGCAAUAUUACGACCU | -1.84 ± 0.19 | -0.48 ± 0.19
16 | GUUCAGCAAUAUUACGCUGG | -4.05 ± 0.27 | -1.53 ± 0.13
17 | CCCCAGCAAUAUUACGGGGC | -2.95 ± 0.1 | -3.43 ± 0.17
18 | CUGGAGCAAUAUUACGCCAG | – | -2.59 ± 0.33
19 | UCGAAGCAAUAUUACGGAUC | -3.14 ± 0.23 | -2.64 ± 0.37
20 | GGCGAGCAAUAUUACGAACA | -1.16 ± 0.16 | -0.12 ± 0.14
21 | CCCCAGCAAUAUUACGUAAA | -3.91 ± 0.17 | -2.89 ± 0.26
22 | CCAUAGCAAUAUUACGAACG | -0.593 ± 0.09 | -0.0842 ± 0.11
23 | UUAUAGCAAUAUUACGUUGA | -2.54 ± 0.42 | -1.58 ± 0.27
24 | CUCUAGCAAUAUUACGUCGC | – | -3.28 ± 0.47
25 | GGCCAGCAAUAUUACGCAAC | -1.19 ± 0.1 | -0.97 ± 0.12
26 | AGGAAGCAAUAUUACGGUAA | -2.47 ± 0.2 | -2.26 ± 0.18
27 | AGUCAGCAAUAUUACGAUUG | -1.38 ± 0.11 | -0.258 ± 0.15

Row | Sequence | self-splicing fitness (ln) (30 °C) | self-splicing fitness (ln) (37 °C)
28 | UCUGAGCAAUAUUACGUCGG | -0.746 ± 0.093 | -0.184 ± 0.12
29 | UGCAAGCAAUAUUACGGAGU | -2.83 ± 0.14 | -3.18 ± 0.16
30 | CCGGAGCAAUAUUACGCGAA | -3.59 ± 0.42 | -2.41 ± 0.36
31 | CUGGAGCAAUAUUACGCAGA | -3.56 ± 0.37 | –
32 | GGUAAGCAAUAUUACGGUGC | -1.14 ± 0.15 | -0.983 ± 0.26
33 | GAGCAGCAAUAUUACGAAUC | -2.08 ± 0.07 | -1.22 ± 0.083
34 | AUCAAGCAAUAUUACGCGCU | -1.27 ± 0.12 | -0.36 ± 0.11
35 | UUUCAGCAAUAUUACGAUGA | -0.807 ± 0.081 | -0.285 ± 0.075
36 | UGCUAGCAAUAUUACGCAUA | -2.58 ± 0.18 | -1.37 ± 0.14
37 | AUGGAGCAAUAUUACGAGGG | -3.96 ± 0.35 | -2.55 ± 0.42
38 | CUCAAGCAAUAUUACGUGCA | -3.43 ± 0.26 | -1.85 ± 0.19
39 | GUCCAGCAAUAUUACGUCCC | -0.702 ± 0.12 | 0.424 ± 0.12
40 | CUCUAGCAAUAUUACGGUUU | -3.04 ± 0.41 | -1.82 ± 0.29
41 | CACAAGCAAUAUUACGGUUC | -4.1 ± 0.22 | -2.66 ± 0.19
42 | UUGUAGCAAUAUUACGAGCA | -1.49 ± 0.24 | -0.799 ± 0.2
43 | UCAUAGCAAUAUUACGGAGG | -3.54 ± 0.31 | -2.82 ± 0.2
44 | GAGCAGCAAUAUUACGUUGC | -4.45 ± 0.34 | -3.41 ± 0.23
45 | AUACAGCAAUAUUACGUUUC | -3.38 ± 0.19 | -1.49 ± 0.2
46 | CCGCAGCAAUAUUACGAACG | -0.44 ± 0.085 | 0.193 ± 0.1
47 | UGACAGCAAUAUUACGCCCU | 0.0425 ± 0.16 | 0.0969 ± 0.14
48 | AAUUAGCAAUAUUACGACUG | -1.11 ± 0.1 | -0.677 ± 0.11
49 | AUGUAGCAAUAUUACGGACG | -3.24 ± 0.2 | -1.09 ± 0.13
50 | CUACAGCAAUAUUACGCCCU | -3.11 ± 0.2 | -2.85 ± 0.29
51 | CCGGAGCAAUAUUACGGACU | – | -1.56 ± 0.28
52 | ACUCAGCAAUAUUACGGCAC | -1.24 ± 0.17 | -0.799 ± 0.25
53 | ACAUAGCAAUAUUACGCUGG | -2.36 ± 0.11 | -1.46 ± 0.12
54 | GAACAGCAAUAUUACGGCGU | -0.302 ± 0.083 | 0.212 ± 0.097

Row | Sequence | self-splicing fitness (ln) (30 °C) | self-splicing fitness (ln) (37 °C)
55 | CGAUAGCAAUAUUACGUUGG | -1.62 ± 0.091 | -0.0971 ± 0.086
56 | UUUUAGCAAUAUUACGCGCA | -0.13 ± 0.11 | -0.0853 ± 0.12
57 | GCACAGCAAUAUUACGUCCC | -0.0609 ± 0.11 | -0.44 ± 0.11
58 | ACGUAGCAAUAUUACGGGCG | -0.566 ± 0.19 | -1.07 ± 0.19
59 | CGGAAGCAAUAUUACGUGGU | -3.62 ± 0.21 | -1.94 ± 0.2
60 | AUCAAGCAAUAUUACGCCUU | -0.799 ± 0.094 | -0.146 ± 0.12
61 | ACUGAGCAAUAUUACGCAGC | – | -1.7 ± 0.42
62 | AUUAAGCAAUAUUACGCCGC | – | -2.04 ± 0.47
63 | CCUAAGCAAUAUUACGCAUC | -2.22 ± 0.13 | -1.91 ± 0.13
64 | GCAGAGCAAUAUUACGAGAG | -3 ± 0.47 | -1.95 ± 0.32
65 | UGGGAGCAAUAUUACGUCGA | -1.85 ± 0.39 | -1.21 ± 0.28
66 | GCCUAGCAAUAUUACGUUUC | -2.03 ± 0.073 | -0.802 ± 0.079
67 | GUCGAGCAAUAUUACGCUGA | – | -2.01 ± 0.43
68 | GCGCAGCAAUAUUACGAUUA | -1.02 ± 0.13 | -1.48 ± 0.13
69 | AACAAGCAAUAUUACGUUAC | -3.54 ± 0.11 | -3.01 ± 0.18
70 | UGCCAGCAAUAUUACGACCC | -3.56 ± 0.24 | -1.42 ± 0.21
71 | AAACAGCAAUAUUACGUCAU | -3.39 ± 0.12 | -1.55 ± 0.085
72 | CUAUAGCAAUAUUACGGACU | – | -1.89 ± 0.31
73 | CAACAGCAAUAUUACGCGGA | -1.6 ± 0.1 | -1.83 ± 0.091
74 | AUAGAGCAAUAUUACGAAGG | – | -1.24 ± 0.39
75 | GCGUAGCAAUAUUACGGAUA | -1.67 ± 0.13 | -0.826 ± 0.13
76 | CAAUAGCAAUAUUACGUACC | -4.73 ± 0.32 | -3.09 ± 0.32
77 | AUGAAGCAAUAUUACGCAUA | -0.0747 ± 0.071 | -0.57 ± 0.082
78 | UUAAAGCAAUAUUACGCAGC | – | -2.68 ± 0.47
79 | GUCAAGCAAUAUUACGGUGA | -2.82 ± 0.21 | -2.22 ± 0.21
